The text below walks through data of the supplement of paper PMC9112550, “Optimization of the antimicrobial peptide Bac7 by deep mutational scanning” (BMC Biology, 2022).
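Note: peptides expressed intracellularly from a pBAD plasmid library in pooled LB shake-flask culture, induced with 0.3% L-arabinose, DNA abundance read by NGS, three biological replicates, DESeq2 with apeglm shrinkage.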

The data set relates to Escherichia coli TOP10. Description: shrunken log2 fold change of peptide-encoding DNA abundance (4.5 h post-induction vs induction); higher = less antimicrobial activity (less host growth inhibition). The settings on record: time post-induction: 4.5 h; library: site-saturation at positions 5, 18, 19, 20.
As for RRIRDRPPRLPRPRPRPPEDPRP, the “shrunken log2 fold change” value is 0.402. For RRIRWRPPRLPRPRPRPFTWPRP the value was -0.119.

As to RRIRFRPPRLPRPRPRPHMCPRP, the “shrunken log2 fold change” value is -1.24. For the sequence RRIRHRPPRLPRPRPRPHTSPRP, the “shrunken log2 fold change” value is -0.0988.

As to RRIRHRPPRLPRPRPRPFTFPRP, the “shrunken log2 fold change” value was -0.0857. Next, RRIRCRPPRLPRPRPRPYCAPRP: -0.642. As for RRIRTRPPRLPRPRPRPGYDPRP, the “shrunken log2 fold change” value was -0.697.

As for RRIRWRPPRLPRPRPRPQDGPRP, the “shrunken log2 fold change” value is 0.0557. As to RRIRWRPPRLPRPRPRPVSEPRP, the “shrunken log2 fold change” value came out at 0.0771.

Turning to RRIRQRPPRLPRPRPRPRVMPRP, the “shrunken log2 fold change” value is -0.139. Next, RRIRQRPPRLPRPRPRPYRMPRP: 3.17; RRIRLRPPRLPRPRPRPTDAPRP: 0.193; RRIRSRPPRLPRPRPRPGPFPRP: 0.00218. For the sequence RRIRHRPPRLPRPRPRPRVSPRP, the “shrunken log2 fold change” value worked out at 0.106. Next, RRIRQRPPRLPRPRPRPSMKPRP: -0.166; RRIRTRPPRLPRPRPRPQCVPRP: -0.12. Turning to RRIRGRPPRLPRPRPRPVDSPRP, the “shrunken log2 fold change” value is 0.0597. For RRIRMRPPRLPRPRPRPCEGPRP the value was -0.00822; for RRIRARPPRLPRPRPRPAQSPRP, 0.538; for RRIRHRPPRLPRPRPRPRCKPRP, -0.053. Next, RRIRGRPPRLPRPRPRPRQCPRP: 0.216. Regarding RRIRVRPPRLPRPRPRPRFPPRP, the “shrunken log2 fold change” value was 0.285. For RRIRIRPPRLPRPRPRPPCMPRP the value was -0.169. On to RRIRVRPPRLPRPRPRPQILPRP, for which the “shrunken log2 fold change” value is -0.451. For the sequence RRIRARPPRLPRPRPRPQLNPRP, the “shrunken log2 fold change” value was -0.0125.

Turning to RRIRIRPPRLPRPRPRPCQIPRP, the “shrunken log2 fold change” value was -0.0429.

Regarding RRIRYRPPRLPRPRPRPEYSPRP, the “shrunken log2 fold change” value is -0.0605. Turning to RRIRHRPPRLPRPRPRPEIKPRP, the “shrunken log2 fold change” value is -0.264. Consider RRIRWRPPRLPRPRPRPSDQPRP, for which the “shrunken log2 fold change” value is 0.138. Next, RRIRKRPPRLPRPRPRPLECPRP: -0.00691; RRIRFRPPRLPRPRPRPKCKPRP: 0.00614. With RRIRPRPPRLPRPRPRPLRTPRP, the “shrunken log2 fold change” value amounted to 0.831. With RRIRWRPPRLPRPRPRPNHAPRP, the “shrunken log2 fold change” value is 0.601. With RRIRNRPPRLPRPRPRPSWWPRP, the “shrunken log2 fold change” value is 0.28.

Turning to RRIRIRPPRLPRPRPRPNAAPRP, the “shrunken log2 fold change” value is -0.014. Next, RRIRLRPPRLPRPRPRPEVWPRP: 0.276; RRIRWRPPRLPRPRPRPVKSPRP: 0.0342. As to RRIRMRPPRLPRPRPRPCFCPRP, the “shrunken log2 fold change” value turned out to be 0.0295. For the sequence RRIRTRPPRLPRPRPRPPKSPRP, the “shrunken log2 fold change” value was 0.556. In the case of RRIRWRPPRLPRPRPRPYNMPRP, the “shrunken log2 fold change” value was -0.883. As to RRIRERPPRLPRPRPRPLAFPRP, the “shrunken log2 fold change” value is -0.0552. As to RRIRKRPPRLPRPRPRPRIDPRP, the “shrunken log2 fold change” value was -0.154. RRIRGRPPRLPRPRPRPGTTPRP: the “shrunken log2 fold change” value turned out to be 0.379.

As to RRIRMRPPRLPRPRPRPHYNPRP, the “shrunken log2 fold change” value is -0.467. With RRIRPRPPRLPRPRPRPQGLPRP, the “shrunken log2 fold change” value was -0.122. With RRIRWRPPRLPRPRPRPCMAPRP, the “shrunken log2 fold change” value was found to be 0.312. On to RRIRDRPPRLPRPRPRPKMQPRP, for which the “shrunken log2 fold change” value was determined as 0.247. On to RRIRERPPRLPRPRPRPANHPRP, for which the “shrunken log2 fold change” value was -0.00846. For RRIRFRPPRLPRPRPRPTWKPRP the value was 0.32; for RRIRFRPPRLPRPRPRPDGFPRP, 0.015. Regarding RRIRQRPPRLPRPRPRPQAYPRP, the “shrunken log2 fold change” value is -0.0257. Consider RRIRMRPPRLPRPRPRPTKDPRP, for which the “shrunken log2 fold change” value was found to be 0.277.

Consider RRIRFRPPRLPRPRPRPTIIPRP, for which the “shrunken log2 fold change” value is -0.66. For the sequence RRIRMRPPRLPRPRPRPSTHPRP, the “shrunken log2 fold change” value turned out to be 0.021.

As for RRIRMRPPRLPRPRPRPFVYPRP, the “shrunken log2 fold change” value is -0.00869.

As for RRIRGRPPRLPRPRPRPNTPPRP, the “shrunken log2 fold change” value was 0.237. Turning to RRIRDRPPRLPRPRPRPCEMPRP, the “shrunken log2 fold change” value worked out at 0.63.

Regarding RRIRMRPPRLPRPRPRPVIEPRP, the “shrunken log2 fold change” value was -0.0535.

On to RRIRVRPPRLPRPRPRPMLNPRP, for which the “shrunken log2 fold change” value is -0.135. Turning to RRIRTRPPRLPRPRPRPCLLPRP, the “shrunken log2 fold change” value is -0.413. Regarding RRIRQRPPRLPRPRPRPKSGPRP, the “shrunken log2 fold change” value is 0.631. Turning to RRIRARPPRLPRPRPRPMSVPRP, the “shrunken log2 fold change” value is 0.121. As to RRIRVRPPRLPRPRPRPNNVPRP, the “shrunken log2 fold change” value was -0.117. With RRIRFRPPRLPRPRPRPWGPPRP, the “shrunken log2 fold change” value was -0.106.

As to RRIRQRPPRLPRPRPRPVGWPRP, the “shrunken log2 fold change” value was determined as 0.72. In the case of RRIRPRPPRLPRPRPRPEHGPRP, the “shrunken log2 fold change” value is -0.0552. As for RRIRQRPPRLPRPRPRPPYFPRP, the “shrunken log2 fold change” value was 0.245.

On to RRIRNRPPRLPRPRPRPSRVPRP, for which the “shrunken log2 fold change” value was 0.0304. For RRIRPRPPRLPRPRPRPSLGPRP, the “shrunken log2 fold change” value was found to be 0.342. For RRIRCRPPRLPRPRPRPCYFPRP the value was -0.779.

As for RRIRRRPPRLPRPRPRPWFIPRP, the “shrunken log2 fold change” value worked out at 0.0648. As to RRIRNRPPRLPRPRPRPQCFPRP, the “shrunken log2 fold change” value was 0.242. Turning to RRIRRRPPRLPRPRPRPHTRPRP, the “shrunken log2 fold change” value came to 0.145. For RRIRARPPRLPRPRPRPVPWPRP, the “shrunken log2 fold change” value is 0.452.

As for RRIRYRPPRLPRPRPRPPMLPRP, the “shrunken log2 fold change” value was -0.492. In the case of RRIRKRPPRLPRPRPRPKGYPRP, the “shrunken log2 fold change” value was -0.00627.

RRIRRRPPRLPRPRPRPLYRPRP: the “shrunken log2 fold change” value was -0.121.

For the sequence RRIRERPPRLPRPRPRPLIMPRP, the “shrunken log2 fold change” value was -0.781. Consider RRIRNRPPRLPRPRPRPPIGPRP, for which the “shrunken log2 fold change” value amounted to 0.106. Turning to RRIRARPPRLPRPRPRPTVRPRP, the “shrunken log2 fold change” value amounted to 0.302. For RRIRCRPPRLPRPRPRPMIQPRP, the “shrunken log2 fold change” value is -0.417.

In the case of RRIRVRPPRLPRPRPRPATGPRP, the “shrunken log2 fold change” value was found to be 0.119. For RRIRARPPRLPRPRPRPDVHPRP the value was 0.196.

RRIRCRPPRLPRPRPRPWSQPRP: the “shrunken log2 fold change” value was -0.0595. Regarding RRIRIRPPRLPRPRPRPEGMPRP, the “shrunken log2 fold change” value was -0.0787.

On to RRIRMRPPRLPRPRPRPFLWPRP, for which the “shrunken log2 fold change” value was determined as 0.0175. On to RRIRARPPRLPRPRPRPRPMPRP, for which the “shrunken log2 fold change” value turned out to be 0.771. For RRIRFRPPRLPRPRPRPLFLPRP, the “shrunken log2 fold change” value was -0.478. As to RRIRLRPPRLPRPRPRPKAFPRP, the “shrunken log2 fold change” value turned out to be 0.0112. In the case of RRIRARPPRLPRPRPRPGYTPRP, the “shrunken log2 fold change” value was 0.324. Regarding RRIRERPPRLPRPRPRPDYMPRP, the “shrunken log2 fold change” value was 0.0229. As to RRIRNRPPRLPRPRPRPYDMPRP, the “shrunken log2 fold change” value was -0.00776. For the sequence RRIRNRPPRLPRPRPRPHKCPRP, the “shrunken log2 fold change” value was -0.0755. For RRIRNRPPRLPRPRPRPVLGPRP, the “shrunken log2 fold change” value was 0.00359.

Regarding RRIRERPPRLPRPRPRPHKQPRP, the “shrunken log2 fold change” value was -0.0572.

Turning to RRIRFRPPRLPRPRPRPETSPRP, the “shrunken log2 fold change” value was determined as 0.0493. For RRIRSRPPRLPRPRPRPFTRPRP, the “shrunken log2 fold change” value came to 0.0337.

With RRIRPRPPRLPRPRPRPFMGPRP, the “shrunken log2 fold change” value was -0.448. In the case of RRIRQRPPRLPRPRPRPHAHPRP, the “shrunken log2 fold change” value came out at 0.000761.

RRIRMRPPRLPRPRPRPQKCPRP: the “shrunken log2 fold change” value is -0.0433.

As for RRIRMRPPRLPRPRPRPLSLPRP, the “shrunken log2 fold change” value was found to be 0.0457.

In the case of RRIRARPPRLPRPRPRPAGFPRP, the “shrunken log2 fold change” value turned out to be 0.365. Regarding RRIRLRPPRLPRPRPRPMYKPRP, the “shrunken log2 fold change” value was -0.44.

For the sequence RRIRERPPRLPRPRPRPMTKPRP, the “shrunken log2 fold change” value was -0.0224.

RRIRKRPPRLPRPRPRPDVVPRP: the “shrunken log2 fold change” value is -0.0061. With RRIRPRPPRLPRPRPRPQNNPRP, the “shrunken log2 fold change” value is -0.812. As for RRIRHRPPRLPRPRPRPNDGPRP, the “shrunken log2 fold change” value was -0.134. For the sequence RRIRDRPPRLPRPRPRPWRHPRP, the “shrunken log2 fold change” value came to 0.0719. As for RRIRWRPPRLPRPRPRPAPCPRP, the “shrunken log2 fold change” value was 0.322. Regarding RRIRQRPPRLPRPRPRPQYSPRP, the “shrunken log2 fold change” value worked out at 0.124. RRIRYRPPRLPRPRPRPKHRPRP: the “shrunken log2 fold change” value was 0.0727.

Turning to RRIRERPPRLPRPRPRPIQEPRP, the “shrunken log2 fold change” value was -0.0167. RRIRARPPRLPRPRPRPKIAPRP: the “shrunken log2 fold change” value worked out at 0.177.

Regarding RRIRKRPPRLPRPRPRPDWNPRP, the “shrunken log2 fold change” value came to 0.158. For RRIRGRPPRLPRPRPRPYFQPRP the value was -0.161; for RRIRWRPPRLPRPRPRPNDAPRP, 0.0398; for RRIRWRPPRLPRPRPRPTEFPRP, -0.0793.

Turning to RRIRKRPPRLPRPRPRPMMIPRP, the “shrunken log2 fold change” value was -0.0134.

For RRIRLRPPRLPRPRPRPGKAPRP, the “shrunken log2 fold change” value is 0.0651. As for RRIRMRPPRLPRPRPRPLKLPRP, the “shrunken log2 fold change” value turned out to be 0.0525.

With RRIRWRPPRLPRPRPRPKMFPRP, the “shrunken log2 fold change” value was -0.0838. RRIRWRPPRLPRPRPRPWAMPRP: the “shrunken log2 fold change” value amounted to 0.0321.

For RRIRWRPPRLPRPRPRPCLMPRP, the “shrunken log2 fold change” value is -0.225.

With RRIRLRPPRLPRPRPRPLGIPRP, the “shrunken log2 fold change” value is -0.199. On to RRIRPRPPRLPRPRPRPPRVPRP, for which the “shrunken log2 fold change” value was determined as 0.447.
